The results in this text go back to patent publication US20050182242A1, “Global analysis of protein activities using proteome chips” (priority 2001, published 2005).

For one data set, the system named is PI(4)P liposomes. The data set is described as follows: Yeast proteome chip probed with PI(4)P liposomes. The settings on record: liposome binding signal on yeast proteome chip, Cy3-streptavidin detection. The source says:
To identify PI-binding proteins in yeast, liposomes were used as probes because the liposome provides the most relevant physiological condition to assay the interactors. Six types of liposomes were used. Each contains phosphatidylcholine (“PC”) with 1% (w/w) N-(biotinoyl)-1,2-dihexadecanoyl-sn-glycero-3-phosphoethanolamine, triethylammonium salt (biotin DHPE). The biotinylated lipid serves as a label that can be detected by Cy3-streptavidin (21). In addition to PC, the five other liposomes contain either 5% (w/w) PI(3)P, PI(4)P, PI(3,4)P2, PI(4,5)P2, or PI(3,4,5)P3 (FIG. 3A).
The protein-liposome interaction was assayed as follows. Appropriate amounts of each lipid in chloroform were mixed and dried under nitrogen. The lipid mixture was resuspended in TBS buffer by vortexing. The liposomes were created by sonication. Blocked proteome chips were washed three to five times in PBS buffer, and the extra liquid on the glass surface was removed by tapping the slides vertically on a KIMWIPE™. 200 μl of liposome solution was added to the proteome chip and immediately covered by a hydrophobic plastic cover slip (GRACE BIO-LAB™, USA). After trapped air bubbles were removed, the chip was incubated in a humidity chamber at RT for one hour. To remove the cover slip, the chip was immersed into large volume of PBS buffer (50 ml), so that the slip would float away. The chip was then moved to a second PBS bath (>50 ml) and washed 3×5 min with shaking at RT. After removing extra liquid on the surface of the chip, about 100 μl of Cy3 or Cy5 conjugated streptavidin (PIERCE™, USA; 1:2000 to 1:4000 dilution) was added to the surface and covered by a hydrophobic plastic cover slip (GRACE BIO-LABS™, USA). The chip was incubated for greater than 30 min in the dark at RT. The chip was then washed as described above. To completely remove the liquid on the chip, the chip was spun to dryness at 1500-2000 rpm for 5-10 min at RT.
• 1. S. Fields, Y. Kohara, D. J. Lockhart, Proc. Natl. Acad. Sci. 96, 8825 (1999); A. Goffeau et al., Science 274, 563 (1996). • 2 P. Ross-Macdonald et al., Nature 402, 413 (1999); J. L., DeRisi, V. R. Iyer, P. O. Brown, Science 278, 680 (1997); E. A. Winzeler et al., Science 285, 901 (1999). P. Uetz et al., Nature 403, 623 (2000); T. Ito et al., Proc. Natl. Acad. Sci. USA. 97, 1143 (2000) • 3 H. Zhu, M. Snyder, Curr. Opin. Chem. Biol. 5, 40 (2001). • 4 M. R. Martzen et al., Science 286, 1153 (1999). • 5 H. Zhu et al., Nat. Genet. 26, 283 (2000). • 6 G. MacBeath, S. L. Schreiber, Science 289, 1760 (2000). • 7 A. Caveman, J. Cell Sci. 113, 3543 (2000). • 8 P. Arenkov et al., Anal. Biochem 278, 123 (2000). • 9 D. A. Mitchell, T. K. Marshall, R. J. Deschenes, Yeast 9, 715 (1993). The expression vector pEGH was created by inserting an RGS-HisX6 epitope tag between the GST gene and the polycloning site of pEG(KG). The yeast ORFs were cloned using the strategy described previously (5), except every step was done in a 96-well format. Plasmid DNAs confirmed by DNA sequencing were reintroduced into both yeast (Y258) and E. coli (DH5a). […] 0.1 mM calcium was present in buffers in all subsequent steps. The chip was washed three times with PBS at RT. Cy3-conjugated streptavidin (Jackson IR, USA) (1:5000 dilution) was added to the chip and incubated for 30 min at RT. After extensive washing, the chip was spun dry and scanned using a microarray scanner; the data was subsequently acquired with the GENEPIX™ array densitometry software (Axon, USA). • 12 S. S. Hook, A. R. Means, Annu. Rev. […]

Another data set concerns PI(4,5)P2 liposomes. The data set is described as follows: Nitrocellulose membrane assay: adhered PI(4,5)P2 liposomes probed with GST fusion proteins. The class given is binding. The settings on record: dilution series, anti-GST antibodies, ECL. The source says:
A. PI(4,5)P2 liposomes were first adhered to a nitrocellulose membrane, which was blocked by BSA; a dilution series of Rim15p, Eno2p, and Hxk1p, and a GST control were used to probe the membrane. The bound proteins were detected using the anti-GST antibodies and an enhanced chemiluminescence (“ECL”) kit.
Therefore, six proteins, i.e., Rim15p, Eno2p, Hxk1p, Sps1p, Yg1059wp, and Gcn2p, were further tested for phosphoinositol binding using two types of standard assays (Williamson, 2000, Nat. Struct Biol. 7(10):834-7). For Rim15p, Eno2p, and Hxk1p, PI(4,5)P2 liposomes were first adhered to a nitrocellulose membrane, which was then blocked by BSA; different amounts of the GST fusion proteins and a GST control were used to probe the membrane, and bound proteins were detected using anti-GST antibodies. […] We also carried out the reverse assay for four GST fusion proteins, Rim15p, Sps1p, Yg1059wp, and Gcn2p (Guerra et al., 2000, Biosci. Rep. 20: 41). Different amounts of these purified proteins were spotted onto nitrocellulose filters and probed with the six different liposomes (FIG. 5B). The bound liposomes were detected using a horseradish peroxidase (“HRP”)-conjugated streptavidin.

Consider “RIM15: yeast protein kinase, regulator of glucose metabolism, GST-HisX6 fusion”, for which the “PI(4)P” value with PI(4)P liposomes was 2349.00. Besides, the “binding to PI(4,5)P2 liposomes on membrane” value in the data set with PI(4,5)P2 liposomes was “tightly bound PI(4,5)P2”.
